Data reported in US20170247447A1 (Hoffmann-La Roche, published 2017).
Residue numbers refer to the chain shown, from its start. Where two headings read alike, the source gives them in different places. Blank lines part the entries; values can stand above or below the binder they belong to.

Columns and labels:
human IL-1beta [1] = biological target: T1, human IL-1beta (human, UniProt P01584 117-269); test: cell-based or functional assay
human IL-1beta [2] = biological target: T1, human IL-1beta; test: SPR (BIAcore), antibody captured via anti-Fc, IL-1beta in solution
Method: All experiments were performed at 25° C. using HBS-P (10 mM His, 140 mM NaCl, 0.05% Tween 20 pH 7.4) as running and dilution buffer. Anti-human or anti-mouse Fc antibodies were immobilized on a Series S CMS Sensor Chip (GE Healthcare) using standard amine coupling chemistry. […] The dissociation phase was monitored for 600 sec by washing with running buffer. […] The surface was regenerated by injecting 3 M MgCl2 (for anti-human Fc antibody) or 10 mM Glycine pH 1.5 (for anti-mouse Fc antibody) for 60 sec at a flow rate of 5 μl/min. Bulk refractive index differences were corrected by subtracting the response obtained from a mock surface. Blank injections were subtracted (double referencing). The derived curves were fitted to a 1:1 Langmuir binding model using the BIAevaluation software.

cynomolgus IL-1beta [3] = biological target: T2, cynomolgus IL-1beta (cynomolgus, UniProt P79182 117-268); test: as above
human IL-1beta [4] = biological target: T1, human IL-1beta; test: as above; remark: listed apart in the source
cynomolgus IL-1beta [5] = biological target: T2, cynomolgus IL-1beta; test: as above; remark: listed apart in the source
human IL-1beta [6] = biological target: T1, human IL-1beta; test: SPR competition, 10 nM human IL-1beta pre-incubated with antibody, competitor immobilized human IL-1RI
Method: All experiments were performed at 25° C. using HBS-P (10 mM His, 140 mM NaCl, 0.05% Tween 20 pH 7.4) as running and dilution buffer. Human IL-1RI was immobilized on a Series S CM5 Sensor Chip (GE Healthcare) using standard amine coupling chemistry. […] The surface was regenerated by injecting 10 mM NaOH for 60 sec at a flow rate of 5 μl/min. Bulk refractive index differences were corrected by subtracting the response obtained from a mock surface.

human IL-1beta [7] = biological target: T1, human IL-1beta; test: cell-based or functional assay; remark: listed apart in the source
human IL-1beta [8] = biological target: T1, human IL-1beta; test: immunoprecipitation radioimmunoassay with 125I-IL-1beta
Method: Determination of antibody affinity—Monoclonal antibody affinity was determined from data obtained using an immunoprecipitation radioimmunoassay. Briefly, 5000 cpm/tube of ¹²⁵IIL-1beta was incubated with dilutions of purified monoclonal antibody in 0.3 ml of 1% non-fat dry milk/0.5% Thimerosal/PBS overnight at 4° C. Antigen-antibody complexes were precipitated by the addition of 100 μL/tube each of 10% normal mouse serum/PBS and 4 mg/ml goat anti mouse IgG sera in PBS. After 4 hours at 4° C., the 1/ml tube of ice-cold 2% polyethylene glycol-6000 was added and the tubes centrifuged at 3000*g for 20 min. at 4° C. The supernatants were aspirated and the pellets counted in a gamma counter.
Affinity constants were calculated using data obtained from an immunoprecipitation radioimmunoassay (RIA) of ¹²⁵IIL-1beta binding of different antibody concentrations as described above.

human IL-1beta [9] = biological target: T1, human IL-1beta; test: cell-based or functional assay; remark: listed apart in the source
human IL-1beta [10] = biological target: T1, human IL-1beta; test: cell-based or functional assay; remark: listed apart in the source
human IL-1beta [11] = biological target: T1, human IL-1beta; test: SPR (BIAcore T200), antibody captured via anti-human Fc, human IL-1beta in solution
Method: All experiments were performed at 25° C. using HBS-P (10 mM His, 140 mM NaCl, 0.05% Tween 20 pH 7.4) as running and dilution buffer. Anti-human Fc antibodies were immobilized on a Series S CM5 Sensor Chip (GE Healthcare) using standard amine coupling chemistry. Bispecific antibodies were captured on the surface leading to a capturing response of 100-200 RU. […] The dissociation phase was monitored for 600 sec by washing with running buffer. The surface was regenerated by injecting 3 M MgCl2 (for anti-human Fc antibody) or 10 mM Glycine pH 1.5 (for anti-mouse Fc antibody) for 60 sec at a flow rate of 5 μl/min. Bulk refractive index differences were corrected by subtracting the response obtained from a mock surface. Blank injections were subtracted (double referencing). The derived curves were fitted to a 1:1 Langmuir binding model using the BIAevaluation software.

human IL-1beta [12] = biological target: T1, human IL-1beta; test: cell-based or functional assay; remark: listed apart in the source
human IL-1beta [13] = biological target: T1, human IL-1beta; test: cell-based or functional assay; remark: listed apart in the source
human IL-1beta [14] = biological target: T1, human IL-1beta; test: cell-based or functional assay; remark: listed apart in the source
human IL-1beta [15] = biological target: T1, human IL-1beta; test: cell-based or functional assay; remark: listed apart in the source

T2 sequence (P79182 117-268 limits assumed): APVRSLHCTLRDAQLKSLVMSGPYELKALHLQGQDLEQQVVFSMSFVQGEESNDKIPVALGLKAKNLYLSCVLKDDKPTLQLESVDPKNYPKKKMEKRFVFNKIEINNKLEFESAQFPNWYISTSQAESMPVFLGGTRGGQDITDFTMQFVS

- IC50, inhibition of ICAM-1 expression, HUVEC cells (human IL-1beta [1]): 240 pM
- Kd (human IL-1beta [2]): 70 pM
- koff (human IL-1beta [2]): 0.000127 s⁻¹
- kon (human IL-1beta [2]): 1.85e+06 M⁻¹ s⁻¹
- Kd (cynomolgus IL-1beta [3]): 50 pM
- koff (cynomolgus IL-1beta [3]): 9.8e-05 s⁻¹
- kon (cynomolgus IL-1beta [3]): 1.99e+06 M⁻¹ s⁻¹
- Kd (human IL-1beta [4]): 70 pM
- koff (human IL-1beta [4]): 0.000127 s⁻¹
- kon (human IL-1beta [4]): 1.85e+06 M⁻¹ s⁻¹
- Kd (cynomolgus IL-1beta [5]): 50 pM
- koff (cynomolgus IL-1beta [5]): 9.8e-05 s⁻¹
- kon (cynomolgus IL-1beta [5]): 1.99e+06 M⁻¹ s⁻¹
- IC50 (human IL-1beta [6]): 3500 pM
- IC50, inhibition of ICAM-1 expression, A549 cells (human IL-1beta [7]): 180 pM
- Ka (human IL-1beta [8]): 6.4e+10 M⁻¹
B1: murine anti-IL-1beta antibody ILB1-H34 (antibody, mouse IgG1, V domains shown)
VH: EVQLQQSGPELVKTGASVKISCKASGYSFTGYYMHWVKQSHGKSLEWIGYISCYNAFTTYNQRFRGKATFTVDTSSSTAYMQFNSLTSEDSAVYYCVRSDYYGTSLYWGQGTTLTVSS
VL: QIVLTQSPAIMSASLGEEITLTCSASSSVSYMHWSQQKSGSSPKLLIYSTSNLASGVPSRFSGSGSGTFYSLTISSVEAEDAADYYCHQWSNYYTFGGGTKLEIK
notes: also called HLB1-H34

- EC50, reduction of IL-6 expression, A549 cells (human IL-1beta [9]): 0.0864 µg/mL
- IC50, inhibition of ICAM-1 expression, HUVEC cells (human IL-1beta [1]): 9020 pM
- EC50, reduction of IL-6 expression, A549 cells (human IL-1beta [10]): 120 pM
- IC50, inhibition of ICAM-1 expression, A549 cells (human IL-1beta [7]): 310 pM
B2: Canakinumab (antibody, V domains shown)
VH: QVQLVESGGGVVQPGRSLRLSCAASGFTFSVYGMNWVRQAPGKGLEWVAIIWYDGDNQYYADSVKGRFTISRDNSKNTLYLQMNGLRAEDTAVYYCARDLRTGPFDYWGQGTLVTVSS
VL: EIVLTQSPDFQSVTPKEKVTITCRASQSIGSSLHWYQQKPDQSPKLLIKYASQSFSGVPSRFSGSGSGTDFTLTINSLEAEDAAAYYCHQSSSLPFTFGPGTKVDIKR

- IC50, inhibition of ICAM-1 expression, HUVEC cells (human IL-1beta [13]): 16500 pM
- EC50, reduction of IL-6 expression, A549 cells (human IL-1beta [14]): 1090 pM
- IC50, inhibition of ICAM-1 expression, A549 cells (human IL-1beta [15]): 700 pM
B8: mumAb (novel murine anti-human IL-1beta antibody) (antibody, V domains shown)
VH: EVQLQQSGPELEKPGASVKISCKASGYSFTDYNMNWVRQSNGKSLEWIGNIDPYYGGTTYNQKFKDKATLTVDKSSSTAYMQLKSLTSEDSAVYYCAREGSPTRYYVMDYWGQGTSVTVSS
VL: DIQMTQSPASLSASVGETVTITCRASENIYSNLAWYQQKQGKSPQLLVYAATNLADGVPSRFSGSGSGTQFSLKINSLQPEDFGSYYCHHFYNTPWTFGGGTKLEIK

More lines, now with the values behind:

B3: huH34-2 (antibody, V domains shown)
VH: QVQLVQSGAEVKKPGASVKVSCKASGYTFTGYYMHWVRQAPGQGLEWIGYISSYNAFTTYNQKFRGRATFTVDTSISTAYMELSRLRSDDTAVYYCVRSDYYGTSLYWGQGTLVTVSS
VL: EIVLTQSPATLSLSPGERATLSCRASSSVSYMHWSQQKPGQAPRLLIYSTSNLASGIPARFSGSGSGTDFTLTISSLEPEDFAVYYCHQWSNYYTFGQGTKLEIK
notes: Humanized, captured by anti-human Fc in SPR; also called huH34-2 bivalent
- IC50, inhibition of ICAM-1 expression, HUVEC cells (human IL-1beta [1]): 300 pM
- t½ (human IL-1beta [11]): 101 s
- EC50, reduction of IL-6 expression, A549 cells (human IL-1beta [10]): 110 pM
- IC50, inhibition of ICAM-1 expression, A549 cells (human IL-1beta [7]): 230 pM

B4: antibody 0031 (bispecific anti-ANG2/IL-1beta CrossMab antibody) (bispecific antibody, V domains shown)
VH 1: B3 VH
VL 1: B3 VL
VH 2: not shown
VL 2: SYVLTQPPSVSVAPGQTARITCGGNNIGSKSVHWYQQKPGQAPVLVVYDTSDRPSGIPERFSGSNSGNTATLTISRVEAGDEADYYCQVWDSSSDHWVFGGGTKLTVLSS
notes: also called anti-IL-1beta/ANG2 antibody
- EC50, reduction of IL-6 expression, A549 cells (human IL-1beta [9]): 0.017 µg/mL
- t½ (human IL-1beta [11]): 38 s
- IC50, inhibition of ICAM-1 expression, A549 cells (human IL-1beta [12]): 0.104 µg/mL

B5: huH34-3 (antibody, V domains shown)
VH: B3 VH with N55S
VL: B3 VL
- EC50, reduction of IL-6 expression, A549 cells (human IL-1beta [10]): 1090 pM
- IC50, inhibition of ICAM-1 expression, A549 cells (human IL-1beta [7]): 2230 pM

B6: antibody 0032 (bispecific anti-VEGF/IL-1beta CrossMab antibody) (bispecific antibody, V domains shown)
VH 1: EVQLVESGGGLVQPGGSLRLSCAASGYDFTHYGMNWVRQAPGKGLEWVGWINTYTGEPTYAADFKRRFTFSLDTSKSTAYLQMNSLRAEDTAVYYCAKYPYYYGTSHWYFDVWGQGTLVTVSS
VL 1: DIQLTQSPSSLSASVGDRVTITCSASQDISNYLNWYQQKPGKAPKVLIYFTSSLHSGVPSRFSGSGSGTDFTLTISSLQPEDFATYYCQQYSTVPWTFGQGTKVEIK
VH 2: B3 VH
VL 2: B3 VL
notes: also called anti-IL-1beta/VEGF antibody
- EC50, reduction of IL-6 expression, A549 cells (human IL-1beta [9]): 0.0387 µg/mL
- t½ (human IL-1beta [11]): 38 s

B7: huH34-1 (antibody, V domains shown)
VH: B3 VH with I48M, N55S, A56G, N61A, R65Q, A68V, F70M, V72R, V97A
VL: B3 VL
- EC50, reduction of IL-6 expression, A549 cells (human IL-1beta [10]): 5520 pM
- IC50, inhibition of ICAM-1 expression, A549 cells (human IL-1beta [7]): > 7000 pM
